Biological target: the molecule itself
Assay: crystal structure

B1: LIN-42 N-terminus residues 41-315 (domain or fragment, C. elegans)
chain: GAMDPEFNTWSSSSVEFLDDADDNRLLFTCTFTLPHGTVLSSATYADGFHEQYLTIGDNFLARLEPKGQSFILSAAAASVKQRIFARVTMPDGALRACELLCEFETDRAKITVLALRSAFSLQASHVSSNFHVFTFITKHSSTCALTHIDYASIPYLGLLPTDLIGKSLLAFVYSPDVHVVRQAHIDLHNSRGKIVKSIADLRLVAHNGSILRCQTEWSAYVNPWTRKMELVVARHRICSLPIGDSDVISSPPPGIQSNTLPPVMAKTFEDELRTIMNKPVP
Does B1 bind?
Result: binds

— doi:10.1101/2023.04.13.536481 (bioRxiv, 2023)
